Experiment [1] addresses CmbHLH2.1 (alternative splicing variant of CmbHLH2) from chrysanthemum 'Jimba', GAL4 DNA-binding domain fusion (Chrysanthemum x morifolium 'Jimba').
The target in experiment [2] is CmbHLH2 from chrysanthemum 'Jimba', GAL4 DNA-binding domain fusion (Chrysanthemum x morifolium 'Jimba').
Sequence of CmbHLH2 from chrysanthemum 'Jimba', GAL4 DNA-binding domain fusion (Chrysanthemum x morifolium 'Jimba') (main, as listed by the source): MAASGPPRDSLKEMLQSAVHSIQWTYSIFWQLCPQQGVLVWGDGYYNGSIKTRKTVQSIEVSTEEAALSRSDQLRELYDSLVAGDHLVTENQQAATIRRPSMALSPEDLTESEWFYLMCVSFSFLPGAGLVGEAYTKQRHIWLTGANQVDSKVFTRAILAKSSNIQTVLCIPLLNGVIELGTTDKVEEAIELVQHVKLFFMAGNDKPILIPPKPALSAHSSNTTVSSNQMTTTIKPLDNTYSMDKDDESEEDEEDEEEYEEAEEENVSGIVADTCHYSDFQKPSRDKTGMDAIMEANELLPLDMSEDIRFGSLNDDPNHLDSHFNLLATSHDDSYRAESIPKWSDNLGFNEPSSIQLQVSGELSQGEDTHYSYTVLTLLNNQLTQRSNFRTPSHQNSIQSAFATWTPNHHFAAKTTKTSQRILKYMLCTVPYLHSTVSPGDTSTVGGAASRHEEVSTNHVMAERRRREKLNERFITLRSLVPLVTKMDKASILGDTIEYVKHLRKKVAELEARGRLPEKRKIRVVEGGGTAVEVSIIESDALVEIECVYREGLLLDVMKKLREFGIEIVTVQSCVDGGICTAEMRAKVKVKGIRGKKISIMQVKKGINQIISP

Sequence of CmbHLH2.1 (alternative splicing variant of CmbHLH2) from chrysanthemum 'Jimba', GAL4 DNA-binding domain fusion (Chrysanthemum x morifolium 'Jimba') (main, as listed by the source mutant): as the sequence (main, as listed by the source) above

The substance “CmMYB6 (transcript20734) from chrysanthemum 'Jimba', GAL4 activation domain fusion (natural protein)” gave a dual-luciferase assay in Nicotiana benthamiana leaves: fold-induced activation of the CmDFR promoter by CmMYB6 together with CmbHLH2.1, compared to empty vector in experiment [1] greater than 10 times. Further, the dual-luciferase assay in Nicotiana benthamiana leaves: fold-induced activation of the CmDFR promoter by CmMYB6 together with CmbHLH2, compared to empty vector in experiment [2] was greater than 40 times.

These data come from PMC8657904.
